The results in this text go back to paper PMC314469, “Protein Interaction Networks by Proteome Peptide Scanning” (PLoS Biology, 2004).

The target in this test is Sho1 SH3 (SHO1_YEAST), P40073. Description: SPOT array.
Chain of Sho1 SH3 (SHO1_YEAST), P40073 (P40073 295-366): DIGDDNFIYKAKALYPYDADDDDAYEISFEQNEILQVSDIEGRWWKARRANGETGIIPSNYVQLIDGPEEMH
As to KSFPPPPLKPGQKT [84-97 Hypothetical ORF], the normalised SPOT signal, Boehringer light units (BLU); mean over the file's lines of this peptide worked out at 85.4.

On to LSKPSKPLKEIRFD [101-114 Hypothetical ORF], for which the normalised SPOT signal, Boehringer light units (BLU); mean over the file's lines of this peptide was determined as 477.

With LLPPTDPFRRKHEQ [63-76 ribosomal protein (weak similarity)], the normalised SPOT signal, Boehringer light units (BLU); mean over the file's lines of this peptide was 155.

In the case of LVTPEEPAKNKSER, the normalised SPOT signal, Boehringer light units (BLU); mean over the file's lines of this peptide was found to be 102.

On to MALPRTPLKTSTEE [276-289 Small regulatory subunit of Acetolactate synthase], for which the normalised SPOT signal, Boehringer light units (BLU); mean over the file's lines of this peptide is 1100.

In turn, LPPPIIPLRKYGHN [693-706 Pho85 kinase inhibitor] came in with a normalised SPOT signal, Boehringer light units (BLU); mean over the file's lines of this peptide of 109.

Turning to KKLPTGPSKKRQRK [1280-1293 transcriptional regulator], the normalised SPOT signal, Boehringer light units (BLU); mean over the file's lines of this peptide is 203.

LPPPRSPNRPTLSD [363-376 Hypothetical ORF] yielded a normalised SPOT signal, Boehringer light units (BLU); mean over the file's lines of this peptide of 91.7.

Turning to LVQPVVPDKVFSFR [368-381 Hypothetical ORF], the normalised SPOT signal, Boehringer light units (BLU); mean over the file's lines of this peptide was 46.1.

In turn, LRRPIFPGRDYRHQ [218-231 cdc2+/CDC28 related kinase with positive role in conjugation] came in with a normalised SPOT signal, Boehringer light units (BLU); mean over the file's lines of this peptide of 112.

As to LQIPPLPLKLLTPV [307-320 encodes the cytoplasmic trifunctional enzyme C1-tetrahydrofolate synthase], the normalised SPOT signal, Boehringer light units (BLU); mean over the file's lines of this peptide stood at 48.1.

Take LIMPIYPYRLVSTI [525-538 potential membrane glycoprotein with strong similarity to Vth2 and Pep1/Vps10]: the normalised SPOT signal, Boehringer light units (BLU); mean over the file's lines of this peptide turned out to be 338.

In the case of LRLPEIPPKGDFDV [1327-1340 mitohcondrial RNA polymerase], the normalised SPOT signal, Boehringer light units (BLU); mean over the file's lines of this peptide stood at 977.

On to KLEPENPQKPSNTH [238-251 Hypothetical ORF], for which the normalised SPOT signal, Boehringer light units (BLU); mean over the file's lines of this peptide stood at 94.4.

The molecule KKDPNAPKRRLSAY [21-34 11-kDa nonhistone chromosomal protein] showed a normalised SPOT signal, Boehringer light units (BLU); mean over the file's lines of this peptide of 152.

As for KSSPWSPYKVEKVL [161-174 Mitotic spindle protein involved in chromosome segregation.], the normalised SPOT signal, Boehringer light units (BLU); mean over the file's lines of this peptide came to 137.

Molecule LSTPSAPAKINNYS [605-618 Hypothetical ORF] registered a normalised SPOT signal, Boehringer light units (BLU); mean over the file's lines of this peptide of 67.

In the case of MVLPPAPPKNSDPS [764-777 mitohcondrial RNA polymerase], the normalised SPOT signal, Boehringer light units (BLU); mean over the file's lines of this peptide was 141.

LSSPSLPPKVNATN [325-338 Guanosine diphosphatase of Golgi membrane]: the normalised SPOT signal, Boehringer light units (BLU); mean over the file's lines of this peptide came out at 88.

Turning to MKAPKMPDKHRDNY [923-936 similar to RNA helicases], the normalised SPOT signal, Boehringer light units (BLU); mean over the file's lines of this peptide was determined as 181.

Regarding LIDPSTPDKAAKKD, the normalised SPOT signal, Boehringer light units (BLU); mean over the file's lines of this peptide was found to be 103.

Molecule LSLPRLPNKHHWPL [116-129 Hypothetical ORF] gave a normalised SPOT signal, Boehringer light units (BLU); mean over the file's lines of this peptide of 2570.

As to KNLPTIPIRLSGID [143-156 Hypothetical ORF], the normalised SPOT signal, Boehringer light units (BLU); mean over the file's lines of this peptide was 31800.

As to LTLPFGPVKSIWLS [189-202 glucosyltransferase], the normalised SPOT signal, Boehringer light units (BLU); mean over the file's lines of this peptide was 96.7.

Molecule KKYPRKPKKNLNLG [336-349 Hypothetical ORF] showed a normalised SPOT signal, Boehringer light units (BLU); mean over the file's lines of this peptide of 224.

The molecule KRTPKIPEKDVKSD [223-236 Hypothetical ORF] displayed a normalised SPOT signal, Boehringer light units (BLU); mean over the file's lines of this peptide of 3960.

On to KWEPSTPQRNGPIL [158-171 Hypothetical ORF], for which the normalised SPOT signal, Boehringer light units (BLU); mean over the file's lines of this peptide was 175.

Molecule LTSPKNPIKSVTKF [569-582 translation termination factor eRF3] displayed a normalised SPOT signal, Boehringer light units (BLU); mean over the file's lines of this peptide of 148.

Regarding LLKPETPSKRLVIR [249-262 kinesin-related protein involved in mitosis], the normalised SPOT signal, Boehringer light units (BLU); mean over the file's lines of this peptide was determined as 290.

In turn, LDYPKAPIKLTMKS [160-173 Hypothetical ORF] yielded a normalised SPOT signal, Boehringer light units (BLU); mean over the file's lines of this peptide of 175.

LAPPLSPTKPSPLH [253-266 Hypothetical ORF] came in with a normalised SPOT signal, Boehringer light units (BLU); mean over the file's lines of this peptide of 106.

As for LRDPVIPIKLAAEK [2564-2577 translational activator of GCN4 through activation of GCN2 in response to starvation], the normalised SPOT signal, Boehringer light units (BLU); mean over the file's lines of this peptide amounted to 122.

Take LPAPHRPEKYKERF [67-80 Hypothetical ORF]: the normalised SPOT signal, Boehringer light units (BLU); mean over the file's lines of this peptide came out at 173.

As to LVQPNVPEKHNMST [144-157 Hypothetical ORF], the normalised SPOT signal, Boehringer light units (BLU); mean over the file's lines of this peptide was 182.

As to KISPSAPSKDSFTK [350-363 nuclear pore protein], the normalised SPOT signal, Boehringer light units (BLU); mean over the file's lines of this peptide is 79.6.

On to KKDPFPPPKDLLVQ [421-434 110 kDa subunit of the centromere binding factor CBF3], for which the normalised SPOT signal, Boehringer light units (BLU); mean over the file's lines of this peptide came to 64.6.

Molecule LDDPFTPPRWLHHI had a normalised SPOT signal, Boehringer light units (BLU); mean over the file's lines of this peptide of 93.

On to KLRPDLPVKNFVVK [641-654 subunit of assimilatory sulfite reductase], for which the normalised SPOT signal, Boehringer light units (BLU); mean over the file's lines of this peptide was found to be 2110.

For LPVPPPPVRPSISF [239-252 RNA polymerase II large subunit], the normalised SPOT signal, Boehringer light units (BLU); mean over the file's lines of this peptide stood at 172.

The molecule LRSPNTPRRLRKTL [198-211;312-325;376-389;96-109 Hypothetical ORF;Y'-helicase protein 1] returned a normalised SPOT signal, Boehringer light units (BLU); mean over the file's lines of this peptide of 200.

In turn, LSIPDLPLRIHNQT showed a normalised SPOT signal, Boehringer light units (BLU); mean over the file's lines of this peptide of 102.

The molecule MEYPFKPPKMQFDT [60-73 ubiquitin-conjugating enzyme] showed a normalised SPOT signal, Boehringer light units (BLU); mean over the file's lines of this peptide of 164.

As for KPDPESPSKLRHYE [851-864 involved in cell wall biogenesis], the normalised SPOT signal, Boehringer light units (BLU); mean over the file's lines of this peptide is 216.

As to LMPPDSPPRMTENT [1790-1803 "RAP1-interacting factor, involved in establishment of repressed chromatin"], the normalised SPOT signal, Boehringer light units (BLU); mean over the file's lines of this peptide came to 121.

LHGPFKPVKSSNGE [25-38 Hypothetical ORF] showed a normalised SPOT signal, Boehringer light units (BLU); mean over the file's lines of this peptide of 61.6.

Turning to KNLPLNPSKKLEGK [313-326 Hypothetical ORF], the normalised SPOT signal, Boehringer light units (BLU); mean over the file's lines of this peptide stood at 206.

In turn, KYDPDNPNKDKLGT returned a normalised SPOT signal, Boehringer light units (BLU); mean over the file's lines of this peptide of 159.

MSLPVTPVKSKVSS [50-63 Putative participant in 3' mRNA processing] showed a normalised SPOT signal, Boehringer light units (BLU); mean over the file's lines of this peptide of 284.

As to LIPPGFPTKNYPPG [185-198 Hypothetical ORF], the normalised SPOT signal, Boehringer light units (BLU); mean over the file's lines of this peptide was determined as 80.2.

The molecule LPVPQLPPKLLVYP [17-30 RNA polymerase II-associated protein] came in with a normalised SPOT signal, Boehringer light units (BLU); mean over the file's lines of this peptide of 16.2.

KIMPPTPAKKVEFI [312-325 putative GTP-exchange protein] came in with a normalised SPOT signal, Boehringer light units (BLU); mean over the file's lines of this peptide of 1220.

As for MLIPNFPNKKLKLN, the normalised SPOT signal, Boehringer light units (BLU); mean over the file's lines of this peptide was determined as 415.

As to LRKPRAPMRNVIIT [449-462 cytochrome oxidase assembly factor], the normalised SPOT signal, Boehringer light units (BLU); mean over the file's lines of this peptide worked out at 184.

LNSPDLPERTKLRN [445-458 Septin homolog] showed a normalised SPOT signal, Boehringer light units (BLU); mean over the file's lines of this peptide of 110.

KFIPNKPYRQFNTW [339-352 gamma-aminobutyrate (GABA) transaminase (4-aminobutyrate aminotransferase)]: the normalised SPOT signal, Boehringer light units (BLU); mean over the file's lines of this peptide is 60.6.
